# Reference: the DeepSol protein solubility set
# Assay: soluble on expression in E. coli; label from the status in PepcDB or PDB records
row,Sequence,soluble on expression in E. coli
1,MFFMYFTNYGYRLNQIKKGSDQHWLFLPGGPGLGSEYLASFCDKLTLQGTVSLVDFPKDGNNSEGQLDFVSWQEGLISLLKSLNKPILVTHSFSGMFTLNFPEIENHLSGLVLMNTTTTNSFFQHVNEMRQKHNLPDLVPAASQYHLYPSNETYKKFWDTYKHYCFTQEELPIGEQMMELFAYNNESYHYAIEHFYNDFHYKWHPQTIPTMTIASELDYICPPAIFIQDKNFQCQNVINKVIYKAGHCPWILHLEQVQKCFDEFSGMIQEINIERIL,not soluble
2,MGSDKIHHHHHHMRIALVTNTFLPLTGGGEFVVHHLGNQWSMQGHDVCVFNSLTAEVAHPEALYKVMRYKIMRGATRFGYHRFPWVNVSTRSLNRQINYFNPDFVSGHFSIPVALYLDNLKPKRIWSITSHGSDIVRNDVNSQRDQYDIDNKLANSLNNASSVIAISNSAKANLLDIGVKPSLIRVIPNGVELNRFKTKANTNIREMFNIPEHKKLVLTVGRNSLVKNLGLGINAVAEIAKSRSDIHYLIVGGGTSQLNETIINRGLRDTVTTCENLAGESLVAAYQQSDIFLSTSNYECCPLVILEAMASGLPIVATQVAGNVDLIDNEVNGLLVGRNNHMHIVNAITMLIADKRLCHSISTTNYDKVSDYSWDTVSRSYLELLQ,not soluble
3,MIQVYKYDENFMFVEPLVVTEIDEKGDYIFPDNCTSVPLPDSPSYYLPRFDLSKQVWIETASQEYIDSLSPPPEEPSDVELLGQSLAEARILILKQNRIILNLQNEVKNLKDGTTALEHHHHHH,soluble
4,MPKRRYNPSANEEEKIPIVEKLYRENQESDFLGGGFCDDDDEVQERREQISEMRQKREEAAHNLIQAPENCEKCDKGLMDSWLWERYNCAVCDACRDDKGEHKLLARTEVKNTYLLKDCDLDLRKPKLRYWAKKNPHNPRYGDMKLYLKCQIETRVLEVHGSWEDLELKKELREQSKEVRSEKRFEKKLKDLRQQIRGTSGVKVDFGRPHTHEFGKETHVEEDTWRRTCITCEYEEVFEKL,not soluble
5,SNAMWKRMTAKAEGLYIADTKSFVTKQMDKLDFDYGGIPGDLHFGLTKKAGAREPMFSRGTEIFNRRQISIVSIEECNEIALKMGVPRILPEWLGANVAVSGMPDLTSLKEGSRIIFPSGAALLCEGENDPCIQPGEVIQSYYPDQPKLASAFVRHALGIRGIVCIVERPGAVYTGDEIEVHSYQRKVKRKAERV,soluble
6,MIPKKSSFIVTYAFRIKPTSPQDSGSNRMIIVITPTYKRITRLADITRLANTLSQVENLHWIVIEDGESTIPNVQNILERSELLYTYVAHRTASGYPARGWYQRDMALKLIRTNPSQILGEHEGEAVIYFADDDNSYDLRLFEDYIRNVKKLGLWAVGLAGGAAVEAPNVVNKKVTSFNFKWKSKRRFAVDMAGFAINLDYILNSSAVFGTECKRGDGAPETCLLEDLGFDLNDIEPFGYEKEASEIYSSLYSMVFYLQKNNEILVWHTKTSYSGMKVKEAEKFGYFVEP,not soluble
7,SEVERKIVSLEALYIVYDADGTVAGELLYLLRKWLGKGHCAACDITHGPRKVKPEWTILQKTGWLGVPLFNIHRDEMEPKLRSAVSCALPCVAALVDNGDYVLLLQPEDLESCKGQVSKLQEKIVEALKDFGFQVNESFTSVVTSDLSDTCPSTLDREKEEDDAVVPF,soluble
8,SSGHIEGRHMNKQATEILNEYFYSHLSNPYPSEEAKEELAKKCGITVSQVSNWFGNKRIRYKKN,soluble
9,MASMTGGQQMGRGSGIVQQQSNLLRAIEAQQHLLQLTVWGIKQGGGGSEWEREISNYTDIIYRLIEESQNQQEKNEQELLALDKWASLWNWFDITNWLWYIQHHHHHH,soluble
10,RTAAELMGRCSSKGLGISDIMFINERASRSEEEIREGLLHIWSVMEACVETSLKREGVLPGGLKVRRRSPDWLERLLKEDKDRNDPKYWQEWVNLIALAVNEENASGGRVVTAPTNGAAGIIPAVLYYALNYAPGMDKASQADKDDVVVKFLLAAGAVGVLYKEQASISGAEVGCQGEVGSASSMAAAGLAEVMGGSPGQVENAAEIAMEHNLGLTCDPIGGLVQIPCIERNAIAAAKAINAAKMALWGDGTHRVSLDEVIVTMRETGKDMSSKYKETAMGGLAVN,not soluble
11,RSRGNFPIYNNTRVTYFPTGETFFDSLKEQLFLAKKYIFLEFFIIAEGQMWGEILSILEKKVSEGVEVRVLFDGMNELSTLSSDYAKRLEQIGIKAKSFLPISPFISTYYNYRDHRKIVVIDGEVSFTGGINLADEYINEVERFGHWKDAGLMLEGEATDSFLILFLQMWSITEKELIIDPYLSDHSLKLPSDGYVIPYGDSPLDTDKIGKNV,not soluble
12,MGSDKIHHHHHHMSGGDAMAKAVKQPAPDAEQIVLAIDIGGSHVKILTSAGGAERRDDSGPDLTPQQMIDKVKKLAEGLSYDVISMGYPGPVRHNKPVLDPKNLGKGWAGFDFAAQFGKPVKVVNDALMQAIGSYEGGRMLFLGLGTGLGAAMVFDNVGQPMELAHLPYRKGRSFEDYVGERGLEKRGKKKWRKYVFDVVTRLRAALQPDYVVIGGGNVDKLDALPAEARRGDNTRAFEGGFRLWRDKALIV,not soluble
13,VPKVTFTVEKGSNEKHLAVLVKYEGDTMAEVELREHGSDEWVAMTKGEGGVWTFDSEEPLQGPFNFRFLTEKGMKNVFDDVVPEKYTIGATYAPEE,soluble
14,MAENDGETIVPDEQCNLTASTPMKSSGLEQVESPKERKTSMVECDDEGNPSSGTPDESPKQLTPHSIPPRRRRSPRRPEVSASRLPLKVLNQIFQYLPLKDLRSAMLTCHSWNNALSMEDSDIWQYLLGKKLPEAAVSDPFLLAELGSAKKKLRAWYFAWNTSDISRNNYIRTNGFTVHRQPVAQSTDGVRGKRGISKGVHAFDITWDGPLGTVAVVGIATKHAALHCVGYVALLGSDDQSWGWNLVDNVLMHNGAQLGVYPKMNNPPKYEVGDKIRLIIDCDTHVAYFERNSEFLGIAFNHIPPLRLYPAVCAVYGNTEVTMVYVGSPQMG,not soluble
15,MSASAFNFAFRRFWNSETGPKTVHFWAPTLKWGLVFAGLNDIKRPVEKVSGAQNLSLLATALIWTRWSFVIKPKNYLLASVNFFLGCTAGYHLTRIANFRIRNGDSFKQVIHYIIKGETPAAVAAKQTASTSMNKGVIGTNPPITH,soluble
16,SSPEYAMEGIFSVKSDVFSFGVLVLEIVSGKRNRGFHNSGQDNNLLGYTWENWKEGKGLEIVDSIIVDSSSSMSLFQPHEVLRCIQIGLLCVQERAEDRPKMSSVIVPFCTR,soluble
17,MAAEKKVFVIFDHQEQRHDQPWPSYHIEVPRRLDAILERLNTTKLLTDPRIEHIPRREAEESEILAVHTKRYVDDVKSTETMTVEQQESFCTKYEDIYVNSATWHRAKLAAGASIDLMTSVMAAKRPGIAFIRPPGHHAMPDEGCGFCIFNNVAIAAKAAIQNGQKVLIVDYDVHAGNGTQECVEQMGEGNVQLISIHRYENGHFWPNMPQTGIYHNYKNTINLPLNTIGLTDADYHALFTHIILPTIHAFQPDLLLVSSGFDASIGDPEGSMQVTPAGFATMIRMLIDTGIPVAALLEGGYFLDALAADSEWVLRALLGEEIPRIRVEKIHSAIADTIGRVVKRYEGSCPFFKKVQELRGILGCRVAEEDQQEEATDYTGERTVHPPYETRGIYTPFTEQKVAEFKDQLESILASYTTPPDFSAETEAFHSAIAPHSSEINDFYFGVHEDKILLGTSPAVRLFFELLFTAPYDPKHTIKLYGKVKPEDFGKIELDSRSLGEMKNISIFNNLPIFQL,not soluble
18,IKDFNYGVKFVLSDDQRKVTRYPNEELNRNQWYAGRMDGLVWGYETVGIAKTDAEMEAHLASLPNGGQSQLGSKWAAGDIMYKDLNGDGKISSGDGTLNDLGDLKVVANTQLRFKYGLTLDASWKGFDFSAFFQGVGKRDVVVGGPYFWGANGQGMWQAAAFKDHMDYFRPEDTESVFGPNVDAYYPRVIFGGGSSEGGKNTLTQSRYVQNGAYIRLKNLQLGYTLPSTITKKFAVNSLRVYVSGDNLWTGTKMRVFDPEVLGSTGDAGKAYPLARVWSVGLNVNF,not soluble
19,MVQTVLNSVWLWRSVLLRLTFSDSGSFLGQSFLLFSSGFWSVLVEQLEGFSSGVSVQSVLELSNGWRNLQSDGQDLLLSLQSDIFWPFDVSGQVSLWLDSLANTEVLWSRVSQWVLSLVRLSGLSTEWSWSNFLTWSHLFFQLSCSLY,soluble
20,INQPVIETERFDLRPLRKSDMGLIEHYARDERVARMTTSIPHPLPPGMAEGFVARAMSEERTEDVWAMDATRDGGPELMGLISLERMDRNQSEVGYWVAPVFWNTGIASMAVEALVNANPLGNATMFASVFQDNPASARVLTHCGFQYLGDAESYSVARDAAVPTWTYSRKL,soluble
21,VRVLSYDKEKLNWLYKDPQGLVQGPFSLTQLKAWSDAEYFTKQFRVWMTGESMESAVLLTDVLRL,soluble
22,MSLTVHATPEPAAHQGVALGSSFYAAMRILPRPQREAMFQVYSFCRFVDDIADSDRPREQRVAELQQWRDDIAALYRGAPPPRLADYQESLRTFGLKREDFEAIIDGMEMDVDADIRAPDEATLDLYCDRVASAVGRLSVRIFGLPEADGIELSHHLGRALQLTNILRDIDEDAGIGRLYLPSELLHKVGITATDPRVVAADSALPSVCAPLVERALAHFAAADKVMNRNPRRVVKAPRIMGKYYYSILQLLIARGFAAPRAPVKLGKASKIAILLQYAIVEGHHHHHH,soluble
23,MFYYVEILGTLPEMGKAEVEALAELGVGNVEKVDYLLVSGSVKHIGVFERLGLAHEYGLLLYEGDDIKDILDFAKGLEWRNIINGTFAVRRERMRNCMHEVNDLDKKIGGIIHSQGLRVNLSRPDTVVRVYCGNKIWLGIRIREFKGKEFEDRKADRRPFSRPIALPPRIARAMVNLTKATREVLDPFMGTGGMLIEAGLIGLKVYGLDIREDMVEGAKINLEYYGIRDYVVKVGDATKIEEVFPGKTFEAVATDPPYGNSTTLPMDRNELYKRSLESIHSVLEGRLAIAFPADFDARDVAESIGFKVLGRFYQRVHSSLSRYFYVMEV,soluble
24,MSLDQREILQKFLDEAQSKKITKEEFANEFLKLKRQSTKYKADKTYPTTVAEKPKNIKKNRYKDILPYDYSRVELSLITSDEDSSYINANFIKGVYGPKAYIATQGPLSTTLLDFWRMIWEYSVLIIGMACMEYEMGKKKCERYWAEPVEMQLEFGPFSVSCEAEKRKSDYIIRTLKVKFNSETRTIYQFHYKNWPDHDVPSSIDPILELIWDVRCYQEDDSVPICIHCSAGCGRTGVICAIDYTWMLLKDGIIPENFSVFSLIREMRTQRPSLVQTQEQYELVYNAVLELFKRQMDVIRDKHSGTESQAKHCIPEKNHTLQADSYSPNLPKSTTKAAKMMNQQRTKMEIKESSSFDFRTSEISAKEELVLHPAKSSTSFDFLELNYSFDKNADTTMKWQTKAFPIVGEPLQEGHHHHHH,not soluble
25,MTTFIQLHLLTAYPAANLNRDDTGAPKTVVLGGATRLRISSQSLKRAWRTSELFEQALAGHIGIRTGRIAREAAQILVDSGIDAKKAVEYVKNIANCFGKVKEDKKPKDELTNAETEQLVHISPAEFEAVKALARRLAEEKRPATEEEAELLRHDRMAVDIAMFGRMLAKKTDFNVEAACQVAHAFGVSETIIEDDFFTAVDDLRQASAEDAGAGHLGETGFGSALFYTYICIDKDLLVKNLNDNEELANKTLRAFTEAALKVSPTGKQNSFASRAYASWALAEKGTDQPRSLAAAFYEPINGTDQLNVAVKRITSLHKNMNKVYGQRTDTASFDVMNQQGSMEDVLDFICA,not soluble
